Target: histone H3 peptide H3K4me3-K9me2 1-24 (Homo sapiens, UniProt P68431, H3K4me3+H3K9me2)
Experiment: ITC

B1: PHF8 1-447 (protein)
chain: MNRSRAIVQRGRVLPPPAPLDTTNLAGRRTLQGRAKMASVPVYCLCRLPYDVTRFMIECDMCQDWFHGSCVGVEEEKAADIDLYHCPNCEVLHGPSIMKKRRGSSKGHDTHKGKPVKTGSPTFVRELRSRTFDSSDEVILKPTGNQLTVEFLEENSFSVPILVLKKDGLGMTLPSPSFTVRDVEHYVGSDKEIDVIDVTRQADCKMKLGDFVKYYYSGKREKVLNVISLEFSDTRLSNLVETPKIVRKLSWVENLWPEECVFERPNVQKYCLMSVRDSYTDFHIDFGGTSVWYHVLKGEKIFYLIRPTNANLTLFECWSSSSNQNEMFFGDQVDKCYKCSVKQGQTLFIPTGWIHAVLTPVDCLAFGGNFLHSLNIEMQLKAYEIEKRLSTADLFRFPNFETICWYVGKHILDIFRGLRENRRHPASYLVHGGKALNLAFRAWTRKE
  Kd: ~1000 nM

B2: KIAA1718 1-488 (protein)
chain: MAGAAAAVAAGAAAGAAAAAVSVAAPGRASAPPPPPPVYCVCRQPYDVNRFMIECDICKDWFHGSCVGVEEHHAVDIDLYHCPNCAVLHGSSLMKKRRNWHRHDYTEIDDGSKPVQAGTRTFIKELRSRVFPSADEIIIKMHGSQLTQRYLEKHGFDVPIMVPKLDDLGLRLPSPTFSVMDVERYVGGDKVIDVIDVARQADSKMTLHNYVKYFMNPNRPKVLNVISLEFSDTKMSELVEVPDIAKKLSWVENYWPDDSVFPKPFVQKYCLMGVQDSYTDFHIDFGGTSVWYHVLWGEKIFYLIKPTDENLARYESWSSSVTQSEVFFGDKVDKCYKCVVKQGHTLFVPTGWIHAVLTSQDCMAFGGNFLHNLNIGMQLRCYEMEKRLKTPDLFKFPFFEAICWFVAKNLLETLKELREDGFQPQTYLVQGVKALHTALKLWMKKELVSEHAFEIPDNVRPGHLIKELSKVIRAIEEENGKPVKSQGI
  Kd: ~300 nM
